Measurements as given in article PMC4007151 (Nature communications, 2013).
No end group written: not given here.

Biological target: T1, PHF1 Tudor-PHD1 (human, UniProt O43189 14-140)
T1 sequence: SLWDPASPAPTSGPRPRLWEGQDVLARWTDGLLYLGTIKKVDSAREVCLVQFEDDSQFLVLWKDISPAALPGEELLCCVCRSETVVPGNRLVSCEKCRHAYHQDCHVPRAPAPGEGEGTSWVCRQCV
Test: NMR titration

binding result: binds
Binder: ATGGVK(Me3)KPHR [H3K36me3 peptide]
